In patent publication US20150361150A1:

Target: tyrosine-protein kinase KIT on the surface of human KIT+ GIST cell lines (GIST 882, GIST 48) (human) (UniProt P10721)
Assay: cell-based or functional assay

Sequence of UniProt P10721 (P10721 26-976): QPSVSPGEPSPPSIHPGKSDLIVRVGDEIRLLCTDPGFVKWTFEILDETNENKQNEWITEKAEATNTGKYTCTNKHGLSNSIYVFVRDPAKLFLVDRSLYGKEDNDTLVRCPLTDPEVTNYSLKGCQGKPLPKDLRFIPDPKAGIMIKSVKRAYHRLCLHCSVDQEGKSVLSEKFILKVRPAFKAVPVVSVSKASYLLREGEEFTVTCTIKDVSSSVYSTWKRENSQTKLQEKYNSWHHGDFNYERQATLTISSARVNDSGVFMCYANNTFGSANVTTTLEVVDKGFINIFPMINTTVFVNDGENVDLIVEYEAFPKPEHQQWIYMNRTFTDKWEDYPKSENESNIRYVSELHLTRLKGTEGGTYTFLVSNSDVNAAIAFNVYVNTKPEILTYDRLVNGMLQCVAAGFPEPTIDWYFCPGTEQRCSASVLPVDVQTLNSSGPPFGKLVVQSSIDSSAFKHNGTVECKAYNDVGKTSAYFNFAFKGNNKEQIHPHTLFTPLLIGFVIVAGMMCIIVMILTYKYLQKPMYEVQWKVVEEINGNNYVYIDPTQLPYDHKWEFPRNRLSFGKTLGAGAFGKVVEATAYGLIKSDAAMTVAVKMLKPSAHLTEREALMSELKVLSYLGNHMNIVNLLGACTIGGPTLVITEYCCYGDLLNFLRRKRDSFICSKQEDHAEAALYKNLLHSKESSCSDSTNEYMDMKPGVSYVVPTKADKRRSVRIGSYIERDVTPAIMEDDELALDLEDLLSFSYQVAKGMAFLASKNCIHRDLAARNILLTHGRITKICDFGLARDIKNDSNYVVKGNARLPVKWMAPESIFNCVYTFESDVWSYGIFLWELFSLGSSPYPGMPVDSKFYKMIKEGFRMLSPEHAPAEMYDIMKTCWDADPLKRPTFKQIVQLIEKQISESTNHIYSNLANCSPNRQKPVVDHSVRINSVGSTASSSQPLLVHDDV

percent of designer T cells divided (CFSE dilution) in co-culture with KIT+ GIST882 cells | Substance
47% | 2^nd generation anti-KIT chimeric immune receptor (extracellular domain of KIT ligand fused to CD28 and CD3 zeta), expressed on human designer T cells
39% | 1^st generation anti-KIT chimeric immune receptor (extracellular domain of KIT ligand fused to the CD3 zeta chain), expressed on human designer T cells
